Earlier results on one substance are cited in PMC7039207.

In general, Kd refers to a measure of binding affinity in units of concentration.

This data set deals with Vinculin tail D5 (Gallus gallus) (UniProt P12003).

Consider “Vinculin head D1-D4 (from UniProt P12003)”, for which the Kd was 100 nM.
